{"source": "patent US20210324076A1", "about": "(AMPHIVENA THERAPEUTICS, published 2021)", "binders": {"B1": {"name": "CD33/CD3 2×2 T-cell engager 12 (bispecific antibody)", "chain": "DIQMTQSPSSLSASVGDRVTITCRSSTGAVTTSNYANWVQQKPGKAPKALIGGTNKRAPGVPSRFSGSLIGDKATLTISSLQPEDFATYYCALWYSNLWVFGQGTKVEIKGGSGGSQVQLVQSGAEVKKPGASVKVSCKASGYTFTSYDINWVRQAPGQGLEWMGWMNPNSGNTGFAQKFQGRVTMTRDTSTSTVYMELSSLRSEDTAVYYCARDRAVTDYYYGMDVWGQGTLVTVSSGGSGQSVLTQPPSASGTPGQRVTISCSGSRSNIGSNTVNWYQQLPGTAPKLLIYGNNQRPSGVPDRFSGSKSGTSASLAISGLQSEDEADYYCATWDDSLIGWVFGGGTKLTVLGGSGGSEVQLVESGGGLVQPGGSLRLSCAASGFTFSTYAMNWVRQAPGKGLEWVGRIRSKYNNYATYYADSVKDRFTISRDDSKNSLYLQMNSLKTEDTAVYYCARHGNFGNSYVSYFAYWGQGTLVTVSSAAAGSHHHHHH"}, "B2": {"name": "CD33/CD3 2×2 T-cell engager 16 (bispecific antibody)", "chain": "B1 chain with V218N, Y222S, Y223L"}, "B3": {"name": "CD33/CD3 2×2 T-cell engager 14 (bispecific antibody)", "chain": "B1 chain with V218N, Y221F, Y222S"}, "B4": {"name": "CD33/CD3 2×2 T-cell engager 18 (bispecific antibody)", "chain": "EVQLVESGGGLVQPGGSLRLSCAASGFTFSTYAMNWVRQAPGKGLEWVGRIRSKYNNYATYYADSVKDRFTISRDDSKNSLYLQMNSLKTEDTAVYYCARHGNFGNSYVSYFAYWGQGTLVTVSSGGSGGSQSVLTQPPSVSGAPGQRVTISCTGSSSNIGAGYDVHWYQQLPGTAPKLLIYGNSNRPSGVPDRFSGSKSGTSASLAITGLQAEDEADYYCQSYDSSLSDVVFGGGTKLTVLGGSGQVQLVQSGAEVKKPGESLKISCKGSGYSFTSYWIGWVRQMPGKGLEWMGIIYPGDSDTRYSPSFQGQVTISADKSISTAYLQWSSLKASDTAMYYCARHKRGSDAFDIWGQGTTVTVSSGGSGGSDIQMTQSPSSLSASVGDRVTITCRSSTGAVTTSNYANWVQQKPGKAPKALIGGTNKRAPGVPSRFSGSLIGDKATLTISSLQPEDFATYYCALWYSNLWVFGQGTKVEIKAAAGSHHHHHH", "notes": "Homodimer; His-tagged form"}}, "key": {"human CD3 [1]": {"target": "T1, human CD3 (human, UniProt P07766 23-207; P09693 23-182; P04234 22-171; P20963 22-164)", "T1 sequence (P07766 23-207, chain 1 of 4)": "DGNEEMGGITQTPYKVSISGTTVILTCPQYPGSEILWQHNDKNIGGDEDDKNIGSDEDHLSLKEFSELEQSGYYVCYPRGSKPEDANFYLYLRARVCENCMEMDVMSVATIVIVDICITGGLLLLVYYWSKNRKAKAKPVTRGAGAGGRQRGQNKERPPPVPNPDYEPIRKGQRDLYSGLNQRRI", "T1 sequence (P09693 23-182, chain 2 of 4)": "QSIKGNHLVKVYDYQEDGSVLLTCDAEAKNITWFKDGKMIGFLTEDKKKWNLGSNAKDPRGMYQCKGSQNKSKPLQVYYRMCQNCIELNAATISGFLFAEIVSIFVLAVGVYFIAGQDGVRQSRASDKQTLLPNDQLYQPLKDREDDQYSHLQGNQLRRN", "T1 sequence (P04234 22-171, chain 3 of 4)": "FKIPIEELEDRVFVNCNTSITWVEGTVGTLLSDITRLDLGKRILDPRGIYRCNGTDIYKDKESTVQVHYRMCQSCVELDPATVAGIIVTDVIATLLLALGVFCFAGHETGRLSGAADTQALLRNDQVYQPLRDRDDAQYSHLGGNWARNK", "T1 sequence (P20963 22-164, chain 4 of 4)": "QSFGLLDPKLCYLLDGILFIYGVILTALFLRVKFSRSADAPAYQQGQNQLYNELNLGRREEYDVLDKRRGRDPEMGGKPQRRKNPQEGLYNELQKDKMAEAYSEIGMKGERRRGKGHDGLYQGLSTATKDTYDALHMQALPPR", "assay": "cell-based or functional assay"}, "human CD33 [2]": {"target": "T2, human CD33 (human, UniProt P20138 18-364)", "T2 sequence (P20138 18-364)": "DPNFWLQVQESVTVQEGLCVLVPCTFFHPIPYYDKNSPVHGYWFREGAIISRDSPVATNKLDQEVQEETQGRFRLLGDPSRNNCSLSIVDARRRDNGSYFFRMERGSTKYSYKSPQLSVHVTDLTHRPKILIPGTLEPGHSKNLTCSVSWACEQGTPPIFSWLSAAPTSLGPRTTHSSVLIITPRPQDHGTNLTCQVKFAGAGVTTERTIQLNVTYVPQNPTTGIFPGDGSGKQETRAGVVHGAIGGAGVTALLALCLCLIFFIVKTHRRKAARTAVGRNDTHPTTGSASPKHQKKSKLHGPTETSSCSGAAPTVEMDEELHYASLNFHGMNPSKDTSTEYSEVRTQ", "assay": "cell-based or functional assay"}, "human CD33 [3]": {"target": "T2, human CD33", "assay": "cell-based or functional assay", "remark": "listed apart in the source"}, "human CD33 [4]": {"target": "T2, human CD33", "assay": "cell-based or functional assay", "remark": "listed apart in the source"}, "human CD33 [5]": {"target": "T2, human CD33", "assay": "cell-based or functional assay", "remark": "listed apart in the source"}, "human CD3 [6]": {"target": "T1, human CD3", "assay": "flow cytometry titration on human CD3+ T cells/Jurkat, anti-His detection", "method": "Cells were incubated with 100 μL of serial dilutions of CD33/CD3 2×2 T-cell engagers. After washing three times with FACS buffer the cells were incubated with 0.1 mL of […] mouse monoclonal anti-His antibody in the same buffer for 45 min on ice. After a second washing cycle, the cells were incubated with 0.1 mL of […] FITC-conjugated goat anti-mouse IgG antibodies under the same conditions as before. As a control, cells were incubated with the anti-His IgG followed by the FITC-conjugated goat anti-mouse IgG antibodies without anti-CD33 2×2 T-cell engagers. […] The fluorescence of 1×10⁴ living cells was measured using a Beckman-Coulter FC500 MPL flow cytometer using the MXP software (Beckman-Coulter, Krefeld, Germany) or a Millipore Guava EasyCyte flow cytometer using the Incyte software (Merck Millipore, Schwalbach, Germany). Mean fluorescence intensities of the cell samples were calculated using CXP software (Beckman-Coulter, Krefeld, Germany) or Incyte software (Merck Millipore, Schwalbach, Germany). After subtracting the fluorescence intensity values of the cells stained with the secondary and tertiary reagents alone the values were used for calculation of the KD values with the equation for one-site binding (hyperbola) of the GraphPad Prism (version 6.00 for Windows, GraphPad Software, La Jolla Calif. USA). […]"}}, "note": "Numbering of substitutions follows the chain as printed. Values joined by “and” are separate entries in the source; they are usually repeats but may differ in a detail not shown here. Equal entries are not always repeated.", "data": [{"binder": "B1", "values": [{"measurement": "CD25 Induction EC50 (PBMC, 24 h)", "setting": "human CD3 [1]", "value": 6, "unit": "pM"}, {"measurement": "CD69 Induction EC50 (PBMC, 24 h)", "setting": "human CD3 [1]", "value": 3, "unit": "pM"}, {"measurement": "EC50 cytotoxicity on HL-60, E:T 5:1, 20-24 h", "setting": "human CD33 [2]", "value": "1.3 pM and 137 pg/mL"}, {"measurement": "EC50 cytotoxicity on KG-1, E:T 5:1, 20-24 h", "setting": "human CD33 [2]", "value": "1.2 pM and 126 pg/mL"}, {"measurement": "EC50 cytotoxicity on U-937, E:T 5:1, 20-24 h", "setting": "human CD33 [2]", "value": "0.8 pM and 84 pg/mL"}, {"measurement": "EC50 cytotoxicity, mean of HL-60, U-937, KG-1", "setting": "human CD33 [2]", "value": "1.1 pM and 116 pg/mL"}, {"measurement": "IC50 lysis of KG-1 cells with human T cells, E:T 5:1, 24 h", "setting": "human CD33 [3]", "value": "~0.01", "unit": "pM"}]}, {"binder": "B2", "values": [{"measurement": "CD25 Induction EC50 (PBMC, 24 h)", "setting": "human CD3 [1]", "value": 1, "unit": "pM"}, {"measurement": "CD69 Induction EC50 (PBMC, 24 h)", "setting": "human CD3 [1]", "value": 2, "unit": "pM"}, {"measurement": "EC50 calcein-release lysis of HL-60, E:T 25:1, 30 min", "setting": "human CD33 [4]", "value": 4.8, "unit": "pM"}, {"measurement": "EC50 calcein-release lysis of HL-60, E:T 25:1, 60 min", "setting": "human CD33 [4]", "value": 2.5, "unit": "pM"}, {"measurement": "EC50 calcein-release lysis of HL-60, E:T 25:1, 120 min", "setting": "human CD33 [4]", "value": 1.6, "unit": "pM"}, {"measurement": "EC50 calcein-release lysis of HL-60, E:T 25:1, 180 min", "setting": "human CD33 [4]", "value": 1.6, "unit": "pM"}, {"measurement": "EC50 calcein-release lysis of HL-60, E:T 25:1, 240 min", "setting": "human CD33 [4]", "value": 1.5, "unit": "pM"}, {"measurement": "EC50 calcein-release lysis of HL-60, E:T 25:1, 300 min", "setting": "human CD33 [4]", "value": 1.6, "unit": "pM"}, {"measurement": "EC50 cytotoxicity on HL-60, E:T 5:1, 20-24 h", "setting": "human CD33 [2]", "value": "1.5 pM and 158 pg/mL"}, {"measurement": "EC50 cytotoxicity on KG-1, E:T 5:1, 20-24 h", "setting": "human CD33 [2]", "value": "1.8 pM and 189 pg/mL"}, {"measurement": "EC50 cytotoxicity on U-937, E:T 5:1, 20-24 h", "setting": "human CD33 [2]", "value": "1.9 pM and 200 pg/mL"}, {"measurement": "EC50 cytotoxicity, mean of HL-60, U-937, KG-1", "setting": "human CD33 [2]", "value": "1.7 pM and 179 pg/mL"}, {"measurement": "IC50 lysis of KG-1 cells (separate experiment)", "setting": "human CD33 [3]", "value": 5, "unit": "pM"}, {"measurement": "IC50 lysis of KG-1 cells with human T cells, E:T 5:1, 24 h", "setting": "human CD33 [3]", "value": "~0.5", "unit": "pM"}]}, {"binder": "B3", "values": [{"measurement": "CD25 Induction EC50 (PBMC, 24 h)", "setting": "human CD3 [1]", "value": 10, "unit": "pM"}, {"measurement": "CD69 Induction EC50 (PBMC, 24 h)", "setting": "human CD3 [1]", "value": 7, "unit": "pM"}, {"measurement": "EC50 on HL-60 (cytotoxicity)", "setting": "human CD33 [5]", "value": 11.6, "unit": "pM"}, {"measurement": "EC50 cytotoxicity on HL-60, E:T 5:1, 20-24 h", "setting": "human CD33 [2]", "value": "1.6 pM and 168 pg/mL"}, {"measurement": "EC50 cytotoxicity on KG-1, E:T 5:1, 20-24 h", "setting": "human CD33 [2]", "value": "2.6 pM and 273 pg/mL"}, {"measurement": "EC50 cytotoxicity on U-937, E:T 5:1, 20-24 h", "setting": "human CD33 [2]", "value": "3.6 pM and 378 pg/mL"}, {"measurement": "EC50 cytotoxicity, mean of HL-60, U-937, KG-1", "setting": "human CD33 [2]", "value": "2.6 pM and 273 pg/mL"}]}, {"binder": "B4", "values": [{"measurement": "Kd", "setting": "human CD3 [6]", "value": 11900, "unit": "pM"}]}]}
